This passage reports Kd, fold stronger binding than wild-type Fc and fold weakening of binding against wild type results from patent publication US8815237.

A word on the Kd: it is the free concentration of one partner at which half of the binding sites on the other are occupied at equilibrium, for simple one-to-one binding. Low readings indicate higher affinity, high ones lower affinity.

Common to all, as to assay: SPR (Biacore T100), steady state; antibody immobilized, soluble receptor injected
Experiment [1] has as its target soluble human FcγRIIA^131R (human) (UniProt P12318).
Experiment [2] addresses soluble human FcγRIIA^131H (human) (UniProt P12318).
Experiment [3] deals with soluble human FcγRIa (R&D Systems) (human) (UniProt P12314).
Sequence of UniProt P12314 (P12314 16-288 limits assumed): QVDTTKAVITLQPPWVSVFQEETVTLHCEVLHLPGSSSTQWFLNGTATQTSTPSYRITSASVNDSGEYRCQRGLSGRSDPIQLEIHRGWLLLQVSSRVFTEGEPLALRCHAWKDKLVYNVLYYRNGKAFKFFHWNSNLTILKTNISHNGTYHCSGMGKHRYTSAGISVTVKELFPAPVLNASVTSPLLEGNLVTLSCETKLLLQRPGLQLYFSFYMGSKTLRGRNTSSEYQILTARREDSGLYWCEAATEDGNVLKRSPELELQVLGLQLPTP

In experiment [1], 4m5.3 hIgG1 S298G/T299A (antibody) gave a Kd of 1.7 µM and a fold stronger binding than wild-type Fc of 3 fold. Further, the Kd in experiment [2] was 7 µM. The same substance showed a fold weakening of binding against wild type in experiment [3] of 10 fold.
